{"source": "patent US20150152165", "molecules": {"B1": {"name": "Human Leukocyte Elastase (protein)", "chain": "IVGGRRARPHAWPFMVSLQLRGGHFCGATLIAPNFVMSAAHCVANVNVRAVRVVLGAHNLSRREPTRQVFAVQRIFENGYDPVNLLNDIVILQLNGSATINANVQVAQLPAQGRRLGNGVQCLAMGWGLLGRNRGIASVLQELNVTVVTSLCRRSNVCTLVRGRQAGVCFGDSGSPLVCNGLIHGIASFVRGGCASGLYPDAFAPVAQFVNWIDSIIQ"}}, "key": {"[1]": {"system": "SELP815K-MMPRS 6-mer"}, "[2]": {"system": "SELP815K 6-mer"}, "[3]": {"target": "SELP47K"}, "[4]": {"target": "SELP815K 6-mer", "remark": "listed apart in the source"}, "[5]": {"target": "SELP415K"}}, "data": [{"molecule": "MMP-9", "values": [{"measurement": "SDS-PAGE analysis of enzymatic digestion", "setting": "[1]", "result": "SELP815K-MMPRS is digested by MMP-2 and MMP-9"}, {"measurement": "higher protein loss from hydrogel compared to control (2 weeks, 10 nM MMP)", "setting": "[1]", "result": "63% and 44% higher protein loss compared to control"}, {"measurement": "increase of nanoparticle release compared to control", "setting": "[1]", "result": "increases of 65% and 95% compared to control"}, {"measurement": "loss in Young's modulus of hydrogel", "setting": "[1]", "result": "MMP-9 affected a 24% loss"}, {"measurement": "percentage of total polymer per hydrogel lost (control about 24%)", "setting": "[1]", "result": "enzymatic digestion increasing this percentage to 39% and 35% for MMP-2 and MMP-9-induced degradation, respectively"}, {"measurement": "total release of 100 nm fluorescent nanoparticles from hydrogel at two weeks (no treatment 8.2%)", "setting": "[1]", "result": "treatment with MMP-2 and MMP-9 caused release of 13.5% and 16% respectively"}, {"measurement": "SDS-PAGE analysis of enzymatic digestion", "setting": "[2]", "result": "SELP815K without the responsive sequence is not"}, {"measurement": "Young's modulus of hydrogel", "setting": "[2]", "result": "there was no significant effect present in the standard SELP-815K polymer"}, {"measurement": "protein loss from hydrogel in the presence of MMPs", "setting": "[2]", "result": "SELP815K displayed statistically insignificant levels of increased protein loss in the presence of MMPs"}, {"measurement": "total release of 100 nm fluorescent nanoparticles from hydrogel at two weeks (no treatment 9.3%)", "setting": "[2]", "result": "MMP-2 and MMP-9 treatment conditions yielded release of 12.1% and 9.4%, respectively"}]}, {"molecule": "MMP-2", "values": [{"measurement": "SDS-PAGE analysis of enzymatic digestion", "setting": "[1]", "result": "SELP815K-MMPRS is digested by MMP-2 and MMP-9"}, {"measurement": "higher protein loss from hydrogel compared to control (2 weeks, 10 nM MMP)", "setting": "[1]", "result": "63% and 44% higher protein loss compared to control"}, {"measurement": "increase of nanoparticle release compared to control", "setting": "[1]", "result": "increases of 65% and 95% compared to control"}, {"measurement": "percentage of total polymer per hydrogel lost (control about 24%)", "setting": "[1]", "result": "enzymatic digestion increasing this percentage to 39% and 35% for MMP-2 and MMP-9-induced degradation, respectively"}, {"measurement": "total release of 100 nm fluorescent nanoparticles from hydrogel at two weeks (no treatment 8.2%)", "setting": "[1]", "result": "treatment with MMP-2 and MMP-9 caused release of 13.5% and 16% respectively"}, {"measurement": "SDS-PAGE analysis of enzymatic digestion", "setting": "[2]", "result": "SELP815K without the responsive sequence is not"}, {"measurement": "Young's modulus of hydrogel", "setting": "[2]", "result": "there was no significant effect present in the standard SELP-815K polymer"}, {"measurement": "protein loss from hydrogel in the presence of MMPs", "setting": "[2]", "result": "SELP815K displayed statistically insignificant levels of increased protein loss in the presence of MMPs"}, {"measurement": "total release of 100 nm fluorescent nanoparticles from hydrogel at two weeks (no treatment 9.3%)", "setting": "[2]", "result": "MMP-2 and MMP-9 treatment conditions yielded release of 12.1% and 9.4%, respectively"}]}, {"molecule": "B1", "values": [{"measurement": "soluble fraction release from hydrogel (elastase degradation)", "setting": "[3]", "result": "SELP815K at 8 wt % is more resistant to degradation than SELP47K and SELP415K at 12 wt %"}, {"measurement": "soluble fraction release from hydrogel (elastase degradation)", "setting": "[4]", "result": "SELP815K shows the lowest sensitivity to degradation"}, {"measurement": "soluble fraction release from hydrogel (elastase degradation)", "setting": "[5]", "result": "SELP415K appears to be the most sensitive to elastase degradation"}]}]}
